Reference: patent publication US12661396B2, “Selective targeting of the TREML1/MD2 interaction by small peptide or protein and its use for vaccine adjuvants” (Ascendo Biotechnology, Inc., priority 2020, dated 2026)
Blank lines part the entries; values can stand above or below the molecule they belong to.

How the values were obtained:
[1] = tested on: Human peripheral blood mononuclear cells (PBMCs); assay: TLR agonist-induced TNF-α secretion in human PBMCs with or without TREML1 ECD; format: cell-based; details: human PBMCs, 18 hr; FIG. 7A
Experimental: Human peripheral blood samples from healthy volunteer donors were collected by venipuncture bled into ACD vacutainer tubes. Human peripheral blood mononuclear cells (PBMCs), which were separated from whole blood using Ficoll-Paque Plus (GE17-1440-03) according to the manufacturer's instructions. Human peripheral blood mononuclear cells (PBMCs) were pretreated with or without […]1 (10 ug/ml, 5 ug/ml and 1 ug/ml) and incubated for 30 min at 37° C. with 5% CO2. After treatments, cells were stimulated with TLR agonist, including R848 (InvivoGen #tlrl-r848) and ODN2395 (InvivoGen #tlrl-2395), and incubated at 37° C. with 5% CO2 for 18 hr. Supernatants of cell culture medium were collected for TNF-α measurements. Cell supernatants and plasma samples were harvested and stored at -80° C. Human TNFα concentrations were detected using TNF-α DuoSet ELISA kit (R&D #DY210) according to manufacturer's instructions. Signals were developed using 3,3',5,5'-tetramethylbenzidine and the absorbance of 450 nm was detected with a microplate reader.

[2] = biological target: TLR4 (Homo sapiens, UniProt O00206); assay: Solid phase binding assay, hTLR4 to immobilized TREML1 stalk; details: stalk coated 5 ug/ml; FIGS. 3A and 3B
Experimental: (§1) For TREML1 or mTREML1 stalk binding to human or mouse MD2 protein, TREML1 stalk or mTREML1 stalk (5 ug/ml in PBS) was coated separately on a 96-well plate. Recombinant hTLR4, hMD2, hCD14, or mMD2 was each serially diluted and added to the plates. Anti-His tag antibody-HRP was used as a detection antibody to detect the protein binding.

[3] = biological target: T1, MD2 (Homo sapiens, UniProt Q9Y6Y9); assay: Solid phase binding assay, hMD2 to immobilized TREML1 stalk; details: stalk coated 5 ug/ml; anti-His tag antibody-HRP detection; FIG. 3A
T1 sequence (Q9Y6Y9 19-160): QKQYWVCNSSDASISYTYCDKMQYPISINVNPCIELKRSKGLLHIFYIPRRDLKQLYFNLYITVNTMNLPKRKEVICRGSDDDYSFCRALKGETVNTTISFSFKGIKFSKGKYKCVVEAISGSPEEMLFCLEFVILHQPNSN
Experimental: as §1

[4] = biological target: T2, CD14 (Homo sapiens, UniProt P08571); assay: Solid phase binding assay, hCD14 to immobilized TREML1 stalk; details: stalk coated 5 ug/ml; FIGS. 3A and 3B
T2 sequence (P08571 20-345): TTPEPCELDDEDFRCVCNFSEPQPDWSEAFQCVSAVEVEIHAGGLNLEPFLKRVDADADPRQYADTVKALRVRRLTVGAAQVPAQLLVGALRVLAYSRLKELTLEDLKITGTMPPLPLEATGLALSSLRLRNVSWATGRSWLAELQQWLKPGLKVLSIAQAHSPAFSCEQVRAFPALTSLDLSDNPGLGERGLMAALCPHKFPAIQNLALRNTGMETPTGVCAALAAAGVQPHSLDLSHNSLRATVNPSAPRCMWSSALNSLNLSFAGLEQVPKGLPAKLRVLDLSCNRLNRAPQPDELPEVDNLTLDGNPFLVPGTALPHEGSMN
Experimental: as §1

[5] = tested on: BMDCs; assay: Mouse bone marrow derived dendritic cell maturation (flow cytometry); format: cell-based; details: FIG. 8
Experimental: Femurs and tibiae were harvested from female C57BL/6 mice and extra muscle tissues were removed. Bones were disinfected in 70% ethanol, then rinsed with RPMI-1640 medium, and both ends were cut to flush out the bone marrow with RPMI-1640 medium using 26 G needle syringes. To disperse cell clumps, bone marrow suspension was pipetted in-and-out several times and washed twice with RPMI-1640 medium by centrifugation. […] At day 0, after cell counting, the leukocytes were seeded at a concentration of 2×10^6 cells/10 ml R10 medium containing 200 U/ml rmGM-CSF in sterile […] Petri dish and incubated at 37° C. with 5% CO2. At day 3, another 10 ml of R10 medium containing 200 U/ml rmGM-CSF was added. At days 6, one half of the supernatant was taken out and centrifuged to collect cell pellet, which was resuspend in original plate with 10 ml of R10 medium containing 200 U/ml GM-CSF. At day 8, non-adherent cells were collected by gentle pipetting and centrifuged at 300 g for 5 min. To obtain purer dendritic cells, the population of macrophages (F4/80^high) was removed with Anti-F4/80 MicroBeads UltraPure (130-110-443, Miltenyi Biotec, Bergisch Gladbach, Germany) following the manufacturer's instructions. Briefly, cell pellet was resuspended and mixed well in MACS buffer with Anti-F4/80 MicroBeads UltraPure. This mixture was incubated for 15 min in the dark in 4° C. After washing cells with MACS buffer, cells were resuspended in MACS buffer, filtered with 30 μm nylon mesh, and added to the MACS buffer rinsed column to separate F4/80^+ cells. Unlabeled cells were collected and washed with R10 medium. To freeze the cells, cell pellet was counted and resuspended at a concentration 1×10^7 cell in 2 ml CELLBANKER2 (#11891, ZENOAQ) per cryopreservation vial and stored at −80 degree Celsius.
BMDCs were thawed for the DC maturation experiments. These cells were seeded at 1×10^6 cells/2 ml in R10 medium containing 200 U/ml rmGM-CSF in wells of a 6-well tissue culture dish and cultured to recover the cell viability at 37° C. with 5% CO2. After 6 hr, BMDCs were treated with various fragments of mTREML1 protein and cultured in 37° C. with 5% CO2. On the next day, resuspended cells were collected and analyzed by flow cytometry.
Cells were centrifuged at 1800 rpm for 3 min in PBS containing 1% FBS and 0.1% sodium azide (PBSBA), and then divided at a concentration of 1×10^5 cells/100 ul PBSBA in flow tube. Before staining the surface marker of DC, cells were treated with mouse Fc blocker to avoid antibody non-specific binding at room temperature for 30 min. […] After PBSBA washing, samples were analyzed using the CytoFlex flow cytometer with the CytExpert software.

TLR4, sequence (O00206 24-839): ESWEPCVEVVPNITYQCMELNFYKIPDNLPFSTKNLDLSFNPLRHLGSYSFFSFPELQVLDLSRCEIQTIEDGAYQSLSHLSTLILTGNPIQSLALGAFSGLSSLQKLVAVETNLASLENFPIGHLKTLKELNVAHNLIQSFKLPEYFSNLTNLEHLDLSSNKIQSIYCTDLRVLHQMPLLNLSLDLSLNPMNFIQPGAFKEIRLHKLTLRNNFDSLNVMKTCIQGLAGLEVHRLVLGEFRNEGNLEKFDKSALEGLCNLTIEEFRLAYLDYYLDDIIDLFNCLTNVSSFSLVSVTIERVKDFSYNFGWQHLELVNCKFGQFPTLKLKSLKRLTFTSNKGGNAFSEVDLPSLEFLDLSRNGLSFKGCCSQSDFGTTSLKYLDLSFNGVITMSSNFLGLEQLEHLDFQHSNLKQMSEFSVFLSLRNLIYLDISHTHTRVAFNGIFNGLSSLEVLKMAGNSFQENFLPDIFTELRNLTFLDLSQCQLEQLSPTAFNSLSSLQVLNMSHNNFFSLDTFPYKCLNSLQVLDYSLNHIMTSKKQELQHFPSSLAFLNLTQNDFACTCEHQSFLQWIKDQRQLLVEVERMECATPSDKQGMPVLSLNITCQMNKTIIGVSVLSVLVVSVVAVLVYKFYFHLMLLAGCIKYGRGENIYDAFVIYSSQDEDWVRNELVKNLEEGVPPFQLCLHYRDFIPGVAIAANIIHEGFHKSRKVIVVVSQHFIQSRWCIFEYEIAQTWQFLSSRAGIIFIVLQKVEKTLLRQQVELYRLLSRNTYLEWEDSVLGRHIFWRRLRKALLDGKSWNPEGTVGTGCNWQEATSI

Molecule: CCOCc1nc2c(N)nc3ccccc3c2n1CC(C)(C)O [R848, 4-amino-2-(ethoxymethyl)-α,α-dimethyl-1H-imidazo[4,5-c]quinoline-1-ethanol, reference compound]
TNF-α secretion induced by TLR agonist alone [1]: can induce TNF-α secretion

TLR4 binding to immobilized TREML1 stalk [2]: do not bind TREML1 stalk
CD14 binding to immobilized TREML1 stalk [4]: do not bind TREML1 stalk
Molecule: TREML1 stalk: human TREML1 stalk polypeptide, SEQ ID NO:3, ILPPEEEEETHKIGSLAENAFSDPAGSANPLEPSQDEKSIP, chemically synthesized (listed as Homo sapiens)
MD2 binding to immobilized TREML1 stalk [3]: binds with TREML1 stalk in a concentration-dependent manner

B1: mTREML1 ECD: mouse TREML1 extracellular domain, SEQ ID NO:2; recombinant, E. coli, polyhistidine tag at the N-terminus (protein, listed as Mus musculus)
chain: DSHPEVLQAPVGSSILVQCHYRLQDVRALKVWCQFLQEGCHPLVTSAVDRRAPGNGRIFLTDLGGGLLQVEMVTLQEEDTGEYGCVVEGAAGPQTLHRVSLLVLPPVPGPREGEEAEDEKETYRIGTGSLLEDPSLDPSASAGPHEFRRRENSIP
modifications: N-terminal polyhistidine tag
notes: recombinant, E. coli, polyhistidine tag at the N-terminus
dendritic cell maturation effect compared with TNF-α [5]: significantly stronger than those of TNF-α
dendritic cell maturation (DC maturation markers CD40, CD86, CD80, MHC II) ([5]; analyzed the next day): can trigger dendritic cell maturation
